ID30 data for one substance are collected here from patent US20040019188A1, “Targeting through integrins” (priority 2000, published 2004).

The target of this test is β1 integrins on HEp-2 cells.

As for RGDS peptide (Gibco), the ID30 turned out to be 170 µM.
